Test results as given in PMC9482650, “Quantitative fragmentomics allow affinity mapping of interactomes” (Nature Communications, 2022).

T1: CARD11, Q9BXL7
T1 sequence (Q9BXL7 662-765, limits assumed, looked up): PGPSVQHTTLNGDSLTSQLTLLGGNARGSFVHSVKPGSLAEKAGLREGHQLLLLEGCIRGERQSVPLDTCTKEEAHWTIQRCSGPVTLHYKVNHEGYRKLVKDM

T2: APBA1_2, Q02410
T2 sequence (Q02410 742-832, limits assumed, looked up): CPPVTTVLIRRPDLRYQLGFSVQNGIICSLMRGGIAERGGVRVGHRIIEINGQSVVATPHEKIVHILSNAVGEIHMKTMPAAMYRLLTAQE

T3: MPDZ_12, O75970
T3 sequence (O75970 1857-1958, limits assumed, looked up): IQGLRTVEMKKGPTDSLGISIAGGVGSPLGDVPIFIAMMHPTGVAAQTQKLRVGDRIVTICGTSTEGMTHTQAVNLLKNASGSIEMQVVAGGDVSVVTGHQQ

T4: NHERF3_4, Q5T2W1
T4 sequence (Q5T2W1 373-468, limits assumed, looked up): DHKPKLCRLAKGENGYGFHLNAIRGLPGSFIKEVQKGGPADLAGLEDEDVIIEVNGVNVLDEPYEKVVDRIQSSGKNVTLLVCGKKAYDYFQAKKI

T5: LIN7A, O14910
T5 sequence (O14910 103-200, limits assumed, looked up): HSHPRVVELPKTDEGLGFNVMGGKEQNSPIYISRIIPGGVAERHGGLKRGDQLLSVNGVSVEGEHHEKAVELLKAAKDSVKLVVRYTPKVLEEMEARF

T6: SHANK1, Q9Y566
T6 sequence (Q9Y566 658-767, limits assumed, looked up): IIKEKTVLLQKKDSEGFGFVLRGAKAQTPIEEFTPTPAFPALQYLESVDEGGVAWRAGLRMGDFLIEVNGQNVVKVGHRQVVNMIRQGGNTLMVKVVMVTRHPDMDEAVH

T7: LNX2_3, Q8N448
T7 sequence (Q8N448 463-564, limits assumed, looked up): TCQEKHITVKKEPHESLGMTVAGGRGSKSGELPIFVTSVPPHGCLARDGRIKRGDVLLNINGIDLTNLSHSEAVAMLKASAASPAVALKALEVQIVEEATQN

T8: PDZD2_2, O15018
T8 sequence (O15018 329-429, limits assumed, looked up): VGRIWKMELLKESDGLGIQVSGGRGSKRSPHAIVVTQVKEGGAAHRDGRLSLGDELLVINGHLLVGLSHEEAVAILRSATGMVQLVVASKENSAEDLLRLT

T9: RAPGEF6, Q8TEU7
T9 sequence (Q8TEU7 525-625, limits assumed, looked up): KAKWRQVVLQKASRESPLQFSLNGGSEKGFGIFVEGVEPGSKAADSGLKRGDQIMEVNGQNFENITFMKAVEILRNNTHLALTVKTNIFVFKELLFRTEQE


The binders below were run against PARD3_3, Q8TEW0 (assay: holdup assay). Settings: plain residues with an end cap or a label only (N-terminal biotin on a linker: ado-ado).
Parameters: key: below the threshold = too weak to quantify, mostly under pKd 3.1 to 4

Sequence of PARD3_3, Q8TEW0 (Q8TEW0 582-685): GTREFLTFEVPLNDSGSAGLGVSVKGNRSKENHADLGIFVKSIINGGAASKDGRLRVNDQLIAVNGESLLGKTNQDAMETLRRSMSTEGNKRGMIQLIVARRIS

pKd	Binder
below the threshold	RPGFASESKV [ADRB1, P08588]
3.85	QYPGSPDSWV [PKP4, Q99569]

Each binder was assayed against T1, CARD11, Q9BXL7 (assay: holdup assay). Settings: plain residues with an end cap or a label only (N-terminal biotin on a linker: ado-ado).
Parameters: key: below the threshold = too weak to quantify, mostly under pKd 3.1 to 4

pKd	Binder
below the threshold	RPGFASESKV [ADRB1, P08588]
below the threshold	QYPGSPDSWV [PKP4, Q99569]

These binders were tested against GRIP2_6, Q9C0E4 (assay: holdup assay). Settings: plain residues with an end cap or a label only (N-terminal biotin on a linker: ado-ado).
Parameters: key: below the threshold = too weak to quantify, mostly under pKd 3.1 to 4

Sequence of GRIP2_6, Q9C0E4 (Q9C0E4 648-740): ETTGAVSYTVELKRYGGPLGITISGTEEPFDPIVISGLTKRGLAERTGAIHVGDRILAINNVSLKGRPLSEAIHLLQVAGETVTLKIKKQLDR

pKd	Binder
below the threshold	RPGFASESKV [ADRB1, P08588]
3.51	QYPGSPDSWV [PKP4, Q99569]

The binders below were run against GRASP, Q7Z6J2 (assay: holdup assay). Settings: plain residues with an end cap or a label only (N-terminal biotin on a linker: ado-ado).
Parameters: key: below the threshold = too weak to quantify, mostly under pKd 3.1 to 4

Sequence of GRASP, Q7Z6J2 (Q7Z6J2 96-193): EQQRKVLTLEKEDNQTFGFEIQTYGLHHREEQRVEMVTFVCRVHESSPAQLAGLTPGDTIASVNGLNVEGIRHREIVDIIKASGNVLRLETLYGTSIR

pKd	Binder
below the threshold	RPGFASESKV [ADRB1, P08588]
3.52	QYPGSPDSWV [PKP4, Q99569]

The binders below were run against NHERF4_1, Q86UT5-2 (assay: holdup assay). Settings: plain residues with an end cap or a label only (N-terminal biotin on a linker: ado-ado).
Parameters: key: below the threshold = too weak to quantify, mostly under pKd 3.1 to 4

Sequence of NHERF4_1, Q86UT5-2 (Q86UT5 other isoform, or with tags, fused parts or gaps): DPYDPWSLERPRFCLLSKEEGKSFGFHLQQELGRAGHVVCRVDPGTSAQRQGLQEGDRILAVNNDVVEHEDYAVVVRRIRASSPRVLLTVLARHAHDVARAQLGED

pKd	Binder
below the threshold	RPGFASESKV [ADRB1, P08588]
3.57	QYPGSPDSWV [PKP4, Q99569]

The binders below were run against IL16_4, Q14005 (assay: holdup assay). Settings: plain residues with an end cap or a label only (N-terminal biotin on a linker: ado-ado).
Parameters: key: below the threshold = too weak to quantify, mostly under pKd 3.1 to 4

Sequence of IL16_4, Q14005 (Q14005 1229-1329): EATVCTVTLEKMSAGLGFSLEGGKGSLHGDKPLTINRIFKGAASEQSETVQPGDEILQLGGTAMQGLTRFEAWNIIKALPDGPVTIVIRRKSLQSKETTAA

pKd	Binder
below the threshold	RPGFASESKV [ADRB1, P08588]
below the threshold	QYPGSPDSWV [PKP4, Q99569]

The binders below were run against Inadl_8, Q8NI35 (assay: holdup assay). Settings: plain residues with an end cap or a label only (N-terminal biotin on a linker: ado-ado).
Parameters: key: below the threshold = too weak to quantify, mostly under pKd 3.1 to 4

Sequence of Inadl_8, Q8NI35 (Q8NI35 1425-1530): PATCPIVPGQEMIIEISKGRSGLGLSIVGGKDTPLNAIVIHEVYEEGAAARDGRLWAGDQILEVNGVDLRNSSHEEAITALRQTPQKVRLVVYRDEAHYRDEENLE

pKd	Binder
3.73	RPGFASESKV [ADRB1, P08588]
4.16	QYPGSPDSWV [PKP4, Q99569]

These binders were tested against T2, APBA1_2, Q02410 (assay: holdup assay). Settings: plain residues with an end cap or a label only (N-terminal biotin on a linker: ado-ado).
Parameters: key: below the threshold = too weak to quantify, mostly under pKd 3.1 to 4

pKd	Binder
3.82	RPGFASESKV [ADRB1, P08588]
4.36	QYPGSPDSWV [PKP4, Q99569]

These binders were tested against LNX1_3, Q8TBB1 (assay: holdup assay). Settings: plain residues with an end cap or a label only (N-terminal biotin on a linker: ado-ado).
Parameters: key: below the threshold = too weak to quantify, mostly under pKd 3.1 to 4

Sequence of LNX1_3, Q8TBB1 (Q8TBB1 500-596): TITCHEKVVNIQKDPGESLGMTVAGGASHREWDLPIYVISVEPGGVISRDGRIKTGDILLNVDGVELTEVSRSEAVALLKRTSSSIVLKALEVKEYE

pKd	Binder
below the threshold	RPGFASESKV [ADRB1, P08588]
below the threshold	QYPGSPDSWV [PKP4, Q99569]

Each binder was assayed against T3, MPDZ_12, O75970 (assay: holdup assay). Settings: plain residues with an end cap or a label only (N-terminal biotin on a linker: ado-ado).
Parameters: key: below the threshold = too weak to quantify, mostly under pKd 3.1 to 4

pKd	Binder
below the threshold	RPGFASESKV [ADRB1, P08588]
4.69	QYPGSPDSWV [PKP4, Q99569]

Each binder was assayed against T4, NHERF3_4, Q5T2W1 (assay: holdup assay). Settings: plain residues with an end cap or a label only (N-terminal biotin on a linker: ado-ado).
Parameters: key: below the threshold = too weak to quantify, mostly under pKd 3.1 to 4

pKd	Binder
below the threshold	RPGFASESKV [ADRB1, P08588]
below the threshold	QYPGSPDSWV [PKP4, Q99569]

Each binder was assayed against SNX27, Q96L92 (assay: holdup assay). Settings: plain residues with an end cap or a label only (N-terminal biotin on a linker: ado-ado).
Parameters: key: below the threshold = too weak to quantify, mostly under pKd 3.1 to 4

pKd	Binder
4.84	RPGFASESKV [ADRB1, P08588]
4.72	QYPGSPDSWV [PKP4, Q99569]

What follows are binders tested against LIMK2, P53671 (assay: holdup assay). Settings: plain residues with an end cap or a label only (N-terminal biotin on a linker: ado-ado).
Parameters: key: below the threshold = too weak to quantify, mostly under pKd 3.1 to 4

Sequence of LIMK2, P53671 (P53671 143-248): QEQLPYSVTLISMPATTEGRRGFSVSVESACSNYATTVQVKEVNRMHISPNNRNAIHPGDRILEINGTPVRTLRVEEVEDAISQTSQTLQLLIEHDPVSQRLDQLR

pKd	Binder
below the threshold	RPGFASESKV [ADRB1, P08588]
below the threshold	QYPGSPDSWV [PKP4, Q99569]

Each binder was assayed against MAGI1_1, Q96QZ7 (assay: holdup assay). Settings: plain residues with an end cap or a label only (N-terminal biotin on a linker: ado-ado).
Parameters: key: below the threshold = too weak to quantify, mostly under pKd 3.1 to 4

Sequence of MAGI1_1, Q96QZ7 (Q96QZ7 1-106): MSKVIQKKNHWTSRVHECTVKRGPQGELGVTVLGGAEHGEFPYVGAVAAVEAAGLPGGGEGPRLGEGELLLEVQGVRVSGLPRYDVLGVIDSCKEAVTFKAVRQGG

pKd	Binder
below the threshold	RPGFASESKV [ADRB1, P08588]
below the threshold	QYPGSPDSWV [PKP4, Q99569]

These binders were tested against Inadl_3, Q8NI35 (assay: holdup assay). Settings: plain residues with an end cap or a label only (N-terminal biotin on a linker: ado-ado).
Parameters: key: below the threshold = too weak to quantify, mostly under pKd 3.1 to 4

Sequence of Inadl_3, Q8NI35 (Q8NI35 359-469): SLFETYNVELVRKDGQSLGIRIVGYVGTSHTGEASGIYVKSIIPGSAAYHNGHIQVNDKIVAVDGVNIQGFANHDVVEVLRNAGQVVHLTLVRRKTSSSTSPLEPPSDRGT

pKd	Binder
below the threshold	RPGFASESKV [ADRB1, P08588]
3.63	QYPGSPDSWV [PKP4, Q99569]

These binders were tested against DLG4_3, P78352 (assay: holdup assay). Settings: plain residues with an end cap or a label only (N-terminal biotin on a linker: ado-ado).
Parameters: key: below the threshold = too weak to quantify, mostly under pKd 3.1 to 4

Sequence of DLG4_3, P78352 (P78352 306-403): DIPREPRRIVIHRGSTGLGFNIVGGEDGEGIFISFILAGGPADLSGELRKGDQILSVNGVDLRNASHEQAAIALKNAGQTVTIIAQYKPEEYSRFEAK

pKd	Binder
below the threshold	RPGFASESKV [ADRB1, P08588]
below the threshold	QYPGSPDSWV [PKP4, Q99569]

What follows are binders tested against T5, LIN7A, O14910 (assay: holdup assay). Settings: plain residues with an end cap or a label only (N-terminal biotin on a linker: ado-ado).
Parameters: key: below the threshold = too weak to quantify, mostly under pKd 3.1 to 4

pKd	Binder
below the threshold	RPGFASESKV [ADRB1, P08588]
below the threshold	QYPGSPDSWV [PKP4, Q99569]

What follows are binders tested against Inadl_9, Q8NI35 (assay: holdup assay). Settings: plain residues with an end cap or a label only (N-terminal biotin on a linker: ado-ado).
Parameters: key: below the threshold = too weak to quantify, mostly under pKd 3.1 to 4

Sequence of Inadl_9, Q8NI35 (Q8NI35 1530-1615): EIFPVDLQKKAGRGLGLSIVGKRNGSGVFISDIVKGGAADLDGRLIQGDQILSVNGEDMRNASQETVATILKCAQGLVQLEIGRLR

pKd	Binder
3.47	RPGFASESKV [ADRB1, P08588]
3.72	QYPGSPDSWV [PKP4, Q99569]

What follows are binders tested against GRIP2_4, Q9C0E4 (assay: holdup assay). Settings: plain residues with an end cap or a label only (N-terminal biotin on a linker: ado-ado).
Parameters: key: below the threshold = too weak to quantify, mostly under pKd 3.1 to 4

Sequence of GRIP2_4, Q9C0E4 (Q9C0E4 446-548): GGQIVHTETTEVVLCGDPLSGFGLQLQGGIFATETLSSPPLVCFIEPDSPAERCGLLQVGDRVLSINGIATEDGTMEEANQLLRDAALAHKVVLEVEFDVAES

pKd	Binder
below the threshold	RPGFASESKV [ADRB1, P08588]
below the threshold	QYPGSPDSWV [PKP4, Q99569]

The binders below were run against T6, SHANK1, Q9Y566 (assay: holdup assay). Settings: plain residues with an end cap or a label only (N-terminal biotin on a linker: ado-ado).
Parameters: key: below the threshold = too weak to quantify, mostly under pKd 3.1 to 4

pKd	Binder
below the threshold	RPGFASESKV [ADRB1, P08588]
below the threshold	QYPGSPDSWV [PKP4, Q99569]

These binders were tested against NHERF2_2, Q15599 (assay: holdup assay). Settings: plain residues with an end cap or a label only (N-terminal biotin on a linker: ado-ado).
Parameters: key: below the threshold = too weak to quantify, mostly under pKd 3.1 to 4

Sequence of NHERF2_2, Q15599 (Q15599 142-238): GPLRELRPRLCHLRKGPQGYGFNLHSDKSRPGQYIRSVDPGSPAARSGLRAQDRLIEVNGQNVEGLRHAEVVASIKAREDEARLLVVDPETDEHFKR

pKd	Binder
below the threshold	RPGFASESKV [ADRB1, P08588]
below the threshold	QYPGSPDSWV [PKP4, Q99569]

The binders below were run against HTRA2, O43464 (assay: holdup assay). Settings: plain residues with an end cap or a label only (N-terminal biotin on a linker: ado-ado).
Parameters: key: below the threshold = too weak to quantify, mostly under pKd 3.1 to 4

Sequence of HTRA2, O43464 (O43464 355-458): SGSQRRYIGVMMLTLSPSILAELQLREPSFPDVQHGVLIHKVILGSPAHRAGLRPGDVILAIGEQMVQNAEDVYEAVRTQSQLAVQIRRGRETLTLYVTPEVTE

pKd	Binder
below the threshold	RPGFASESKV [ADRB1, P08588]
4.05	QYPGSPDSWV [PKP4, Q99569]

Each binder was assayed against T7, LNX2_3, Q8N448 (assay: holdup assay). Settings: plain residues with an end cap or a label only (N-terminal biotin on a linker: ado-ado).
Parameters: key: below the threshold = too weak to quantify, mostly under pKd 3.1 to 4

pKd	Binder
below the threshold	RPGFASESKV [ADRB1, P08588]
below the threshold	QYPGSPDSWV [PKP4, Q99569]

Each binder was assayed against T8, PDZD2_2, O15018 (assay: holdup assay). Settings: plain residues with an end cap or a label only (N-terminal biotin on a linker: ado-ado).
Parameters: key: below the threshold = too weak to quantify, mostly under pKd 3.1 to 4

pKd	Binder
4.2	RPGFASESKV [ADRB1, P08588]
6.06	QYPGSPDSWV [PKP4, Q99569]

Each binder was assayed against T9, RAPGEF6, Q8TEU7 (assay: holdup assay). Settings: plain residues with an end cap or a label only (N-terminal biotin on a linker: ado-ado).
Parameters: key: below the threshold = too weak to quantify, mostly under pKd 3.1 to 4

pKd	Binder
below the threshold	RPGFASESKV [ADRB1, P08588]
below the threshold	QYPGSPDSWV [PKP4, Q99569]

Each binder was assayed against TJP2_1, Q9UDY2 (assay: holdup assay). Settings: plain residues with an end cap or a label only (N-terminal biotin on a linker: ado-ado).
Parameters: key: below the threshold = too weak to quantify, mostly under pKd 3.1 to 4

Sequence of TJP2_1, Q9UDY2 (Q9UDY2 24-128): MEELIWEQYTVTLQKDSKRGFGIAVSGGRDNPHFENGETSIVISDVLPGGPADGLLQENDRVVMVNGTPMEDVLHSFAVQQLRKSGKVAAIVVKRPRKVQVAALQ

pKd	Binder
below the threshold	RPGFASESKV [ADRB1, P08588]
4.25	QYPGSPDSWV [PKP4, Q99569]

Each binder was assayed against SCRIB_1, Q14160 (assay: holdup assay). Settings: plain residues with an end cap or a label only (N-terminal biotin on a linker: ado-ado).
Parameters: key: below the threshold = too weak to quantify, mostly under pKd 3.1 to 4

Sequence of SCRIB_1, Q14160 (Q14160 718-814): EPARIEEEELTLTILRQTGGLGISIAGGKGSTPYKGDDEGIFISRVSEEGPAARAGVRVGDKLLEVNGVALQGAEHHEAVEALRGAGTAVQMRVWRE

pKd	Binder
3.94	RPGFASESKV [ADRB1, P08588]
3.91	QYPGSPDSWV [PKP4, Q99569]

These binders were tested against MAGI2_2, Q86UL8 (assay: holdup assay). Settings: plain residues with an end cap or a label only (N-terminal biotin on a linker: ado-ado).
Parameters: key: below the threshold = too weak to quantify, mostly under pKd 3.1 to 4

Sequence of MAGI2_2, Q86UL8 (Q86UL8 410-522): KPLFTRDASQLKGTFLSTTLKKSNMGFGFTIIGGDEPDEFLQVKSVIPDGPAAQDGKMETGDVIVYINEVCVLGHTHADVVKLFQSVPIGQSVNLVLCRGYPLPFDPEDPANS

pKd	Binder
4.6	RPGFASESKV [ADRB1, P08588]
below the threshold	QYPGSPDSWV [PKP4, Q99569]

The binders below were run against DLG5_1, Q8TDM6 (assay: holdup assay). Settings: plain residues with an end cap or a label only (N-terminal biotin on a linker: ado-ado).
Parameters: key: below the threshold = too weak to quantify, mostly under pKd 3.1 to 4

Sequence of DLG5_1, Q8TDM6 (Q8TDM6 617-713): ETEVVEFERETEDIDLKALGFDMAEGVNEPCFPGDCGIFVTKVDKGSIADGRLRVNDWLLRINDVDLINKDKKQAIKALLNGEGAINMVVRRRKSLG

pKd	Binder
below the threshold	RPGFASESKV [ADRB1, P08588]
below the threshold	QYPGSPDSWV [PKP4, Q99569]
